This note sets out measurements from IntAct's records for PubMed 23135401.

The target of assay [1] is pcd15_mouse Pcdh15 (UniProt Q99PJ1).
Assay [2] deals with Cdh23, Q99PF4-1.
Assay [3] concerns the target Cdh23, Q99PF4-1. The source holds these as a separate data set.

Cdh23, Q99PF4-1, sequence (Q99PF4 whole entry): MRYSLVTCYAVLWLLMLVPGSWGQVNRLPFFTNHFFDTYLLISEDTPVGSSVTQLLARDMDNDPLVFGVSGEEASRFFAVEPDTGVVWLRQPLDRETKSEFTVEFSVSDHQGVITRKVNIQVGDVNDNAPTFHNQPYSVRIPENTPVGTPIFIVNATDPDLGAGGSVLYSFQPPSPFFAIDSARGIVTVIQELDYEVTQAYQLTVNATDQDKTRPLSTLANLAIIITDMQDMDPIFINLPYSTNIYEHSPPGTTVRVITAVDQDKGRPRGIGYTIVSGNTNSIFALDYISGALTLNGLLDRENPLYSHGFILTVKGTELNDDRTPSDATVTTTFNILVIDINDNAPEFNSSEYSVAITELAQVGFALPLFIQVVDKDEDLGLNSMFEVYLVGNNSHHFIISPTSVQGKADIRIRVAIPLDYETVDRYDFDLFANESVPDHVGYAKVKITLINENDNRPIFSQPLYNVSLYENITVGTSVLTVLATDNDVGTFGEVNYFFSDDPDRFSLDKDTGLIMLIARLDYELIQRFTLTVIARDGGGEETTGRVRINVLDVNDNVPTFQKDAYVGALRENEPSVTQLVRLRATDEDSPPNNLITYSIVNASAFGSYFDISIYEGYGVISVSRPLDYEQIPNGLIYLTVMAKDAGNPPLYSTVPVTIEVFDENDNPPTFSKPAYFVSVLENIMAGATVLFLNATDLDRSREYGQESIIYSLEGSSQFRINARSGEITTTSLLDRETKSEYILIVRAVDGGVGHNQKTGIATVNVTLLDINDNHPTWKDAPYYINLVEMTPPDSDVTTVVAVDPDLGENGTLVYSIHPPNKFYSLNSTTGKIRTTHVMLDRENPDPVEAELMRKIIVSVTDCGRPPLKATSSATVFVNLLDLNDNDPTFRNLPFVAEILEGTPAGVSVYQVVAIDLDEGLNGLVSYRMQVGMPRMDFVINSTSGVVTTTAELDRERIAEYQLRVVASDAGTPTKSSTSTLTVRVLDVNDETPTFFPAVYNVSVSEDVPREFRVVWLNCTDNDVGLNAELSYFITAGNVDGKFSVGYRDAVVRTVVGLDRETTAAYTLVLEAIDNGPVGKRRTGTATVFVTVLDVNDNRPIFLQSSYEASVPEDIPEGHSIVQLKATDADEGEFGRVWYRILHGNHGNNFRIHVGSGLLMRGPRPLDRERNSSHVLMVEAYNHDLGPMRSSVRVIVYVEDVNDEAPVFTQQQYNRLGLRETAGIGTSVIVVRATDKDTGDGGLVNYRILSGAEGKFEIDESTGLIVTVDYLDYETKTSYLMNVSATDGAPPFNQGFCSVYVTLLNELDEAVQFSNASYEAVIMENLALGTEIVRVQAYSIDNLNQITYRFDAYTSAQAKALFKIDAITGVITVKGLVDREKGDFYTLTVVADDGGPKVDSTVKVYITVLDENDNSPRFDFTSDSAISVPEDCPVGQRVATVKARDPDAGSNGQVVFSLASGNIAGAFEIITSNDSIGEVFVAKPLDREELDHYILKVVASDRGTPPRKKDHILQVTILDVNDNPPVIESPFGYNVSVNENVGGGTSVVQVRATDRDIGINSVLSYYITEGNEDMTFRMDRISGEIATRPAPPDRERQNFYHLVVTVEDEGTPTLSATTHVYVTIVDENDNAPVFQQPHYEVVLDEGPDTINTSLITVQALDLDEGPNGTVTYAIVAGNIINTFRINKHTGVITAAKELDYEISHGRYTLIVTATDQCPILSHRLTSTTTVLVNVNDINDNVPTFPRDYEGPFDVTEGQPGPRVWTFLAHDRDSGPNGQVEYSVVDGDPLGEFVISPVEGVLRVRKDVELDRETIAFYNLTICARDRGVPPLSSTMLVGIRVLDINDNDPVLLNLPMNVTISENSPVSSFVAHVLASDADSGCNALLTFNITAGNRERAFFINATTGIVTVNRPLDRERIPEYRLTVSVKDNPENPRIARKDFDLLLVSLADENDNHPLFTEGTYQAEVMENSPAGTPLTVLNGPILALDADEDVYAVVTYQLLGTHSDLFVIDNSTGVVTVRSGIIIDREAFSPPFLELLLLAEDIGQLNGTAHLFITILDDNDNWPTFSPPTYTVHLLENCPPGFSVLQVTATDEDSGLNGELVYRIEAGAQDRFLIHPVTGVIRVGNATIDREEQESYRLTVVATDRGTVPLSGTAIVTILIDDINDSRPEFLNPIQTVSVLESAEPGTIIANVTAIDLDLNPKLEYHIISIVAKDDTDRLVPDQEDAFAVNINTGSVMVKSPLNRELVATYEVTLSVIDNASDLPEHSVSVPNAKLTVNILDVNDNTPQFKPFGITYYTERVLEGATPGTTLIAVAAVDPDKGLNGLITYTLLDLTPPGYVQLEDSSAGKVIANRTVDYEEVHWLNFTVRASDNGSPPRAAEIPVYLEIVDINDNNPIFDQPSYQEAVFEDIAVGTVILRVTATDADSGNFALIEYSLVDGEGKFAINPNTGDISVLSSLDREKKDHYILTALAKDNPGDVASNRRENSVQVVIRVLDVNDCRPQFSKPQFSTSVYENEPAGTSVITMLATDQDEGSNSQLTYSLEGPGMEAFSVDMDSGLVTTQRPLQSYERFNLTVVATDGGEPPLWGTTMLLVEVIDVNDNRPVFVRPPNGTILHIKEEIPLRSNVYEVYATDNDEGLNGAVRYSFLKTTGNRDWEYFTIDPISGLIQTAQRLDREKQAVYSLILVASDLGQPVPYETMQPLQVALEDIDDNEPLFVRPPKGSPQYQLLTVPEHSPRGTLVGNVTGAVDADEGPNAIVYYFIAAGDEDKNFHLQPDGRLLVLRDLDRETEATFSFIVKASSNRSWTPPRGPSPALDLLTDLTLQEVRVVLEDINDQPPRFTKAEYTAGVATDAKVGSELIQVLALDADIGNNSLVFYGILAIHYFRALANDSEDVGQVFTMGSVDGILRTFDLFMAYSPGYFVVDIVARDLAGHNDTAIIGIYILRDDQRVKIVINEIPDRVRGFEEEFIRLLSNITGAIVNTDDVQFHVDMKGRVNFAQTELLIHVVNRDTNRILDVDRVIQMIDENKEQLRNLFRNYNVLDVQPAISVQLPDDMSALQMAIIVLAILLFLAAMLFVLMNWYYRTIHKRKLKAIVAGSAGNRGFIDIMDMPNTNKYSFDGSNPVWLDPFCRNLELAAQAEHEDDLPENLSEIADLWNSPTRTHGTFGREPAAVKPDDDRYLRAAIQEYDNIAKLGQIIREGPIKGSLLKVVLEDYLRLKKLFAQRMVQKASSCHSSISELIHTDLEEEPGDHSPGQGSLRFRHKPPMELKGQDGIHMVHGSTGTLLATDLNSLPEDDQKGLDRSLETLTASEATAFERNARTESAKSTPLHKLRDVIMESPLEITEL

As to “Cadherin-23 (Mus musculus), Q99PF4-1 D124G”, the “effect of a mutation on the interaction” value in assay [1] is reported as “decreasing interaction strength”.
Still for that read-out and setting: with “Cadherin-23 (Mus musculus), Q99PF4-1 L168G” the entry was “decreasing interaction strength”.
For the substance “Protocadherin-15 (Mus musculus), Q99PJ1 I48A”, the “effect of a mutation on the interaction” value in assay [2] was “decreasing interaction strength”.
As for “Protocadherin-15 (Mus musculus), Q99PJ1 R139G”, the results for the “effect of a mutation on the interaction” value in assay [2] and in assay [3] were “decreasing interaction strength” and “disrupting interaction strength”, respectively.
